US20160053014A1 (SORRENTO THERAPEUTICS, published 2016)
Positions count from the first letter of the chain named.

T1: human CXCR5 (human, UniProt P32302 1-372)
T1 construct: whole, on cells; also called hu-CHO; CHO-CXCR5 cells
T1 sequence (looked up): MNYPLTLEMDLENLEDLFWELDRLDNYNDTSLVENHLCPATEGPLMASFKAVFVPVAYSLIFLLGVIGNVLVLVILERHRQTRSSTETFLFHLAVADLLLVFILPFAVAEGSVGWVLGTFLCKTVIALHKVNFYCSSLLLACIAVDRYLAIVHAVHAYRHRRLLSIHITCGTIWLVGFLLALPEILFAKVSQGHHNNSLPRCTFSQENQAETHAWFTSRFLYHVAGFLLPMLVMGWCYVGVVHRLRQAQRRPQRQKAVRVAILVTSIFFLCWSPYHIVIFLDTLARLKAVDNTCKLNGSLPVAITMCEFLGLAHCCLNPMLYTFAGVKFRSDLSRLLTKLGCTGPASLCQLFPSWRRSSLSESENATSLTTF

T2: murine CXCR5 (murine, UniProt Q04683 1-374)
T2 construct: whole, on cells; Endogenous receptor on mouse spleen cells cultured with LPS
T2 sequence (looked up): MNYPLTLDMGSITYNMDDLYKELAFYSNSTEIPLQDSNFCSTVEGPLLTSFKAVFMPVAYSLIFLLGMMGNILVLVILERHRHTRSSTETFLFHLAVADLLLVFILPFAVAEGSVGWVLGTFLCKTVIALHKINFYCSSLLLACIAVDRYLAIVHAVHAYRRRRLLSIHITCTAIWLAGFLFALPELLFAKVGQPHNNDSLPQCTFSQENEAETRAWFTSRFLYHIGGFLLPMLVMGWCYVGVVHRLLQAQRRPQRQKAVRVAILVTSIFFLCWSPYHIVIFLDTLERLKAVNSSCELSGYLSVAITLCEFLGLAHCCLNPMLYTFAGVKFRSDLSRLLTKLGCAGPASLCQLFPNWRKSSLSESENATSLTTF

B1: 13E10 (antibody, V domains shown)
VH: EVQLVQSGAEVKKPGASLKISCRASGYTFTRNYIHWVRQAPGQGLEWLGIINPNGGSTRYSQKFQGRVTMTRDTSTRTVYMELSSLRSEDTAVYYCAREAPKYCSGSSCYSGGVDYWGQGTLVTVSS
VL: QPVLTQPLSASGTPGQRVTISCSGSSSNIGSNYVYWYQQLPGTAPKLLIYRNYQRPSGVPDRFSGSTSGTSASLAISGLRSEDEADYHCAAWDGSMRGWVFGGGTKLTVL
notes: tested as human IgG
B2: 11E3 (antibody, V domains shown)
VH: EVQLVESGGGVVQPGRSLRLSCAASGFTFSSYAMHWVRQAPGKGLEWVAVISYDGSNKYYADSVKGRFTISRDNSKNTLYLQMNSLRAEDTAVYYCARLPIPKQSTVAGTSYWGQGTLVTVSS
VL: LPVLTQPASVSGSPGQSITISCTGTSSDVGGYNYVSWYQQHPGNAPKLMIYDVSNRPSGVSNRFSGSKSGNTASLTISGLQAEDEADYYCSSYTSSSTLYVFGTGTKLTVL
notes: tested as human IgG
B3: 14E5 (antibody, V domains shown)
VH: EVQLVESGGGVVQPGRSLRLSCAASGFTFSSYGMHWVRQAPGKGLEWVAVISYDGSNKYYADSVKGRFTISRDNSKNTLYLQMNSLRAEDTAVYYCAKVYSRGSDYWGQGTLVTVSS
VL: QSVLTQPASVSGSPGQSITISCTGTSSDVGGYNYVSWYQQHPGKAPKLLIYDVSRRPSGISSRFSGSKSGNTASLTISGLQTEDDGDYYCLSYTTSRAVVFGGGTKLTVL
notes: tested as human IgG
B4: 16F9 (antibody, V domains shown)
VH: EVQLVESGGEVKKPGASVKLSCKSSGYTFTSYYMHWVRQAPGQGLEWMGIINPSGGSTSSAQKFQGRVTMTRDTSTRTVYMELSSLRSEDTAVYYCARGAPNWNYARTLFDYWGQGTLVTVSS
VL: SYELTQPRSVSGSPGQSVTISCTGTSSDVGGYNSVSWYQQHPGKAPKLMIYDVSKRPSGVPDRFSGSKSGNTASLTISGLQAEDEADYYCSSYSSSTTHVVFGGGTKLTVL
notes: tested as human IgG
B5: 13E4 (antibody, V domains shown)
VH: QITLKESGGGVVQPGRSLRLSCAASGFTFSSYGMHWVRQAPGKGLEWVAVISYDGSNKYYADSVKGRFTISRDNSKNTLYLQMNSLRAEDTAVYYCANNGWATYPDYWGQGTLVTVSS
VL: QPVLTQPASVSGSPGQSITISCTGTSSDVGGYNYVSWYQQHPGKAPKLMIYDVSNRPSGVSNRFSGSKSGNTASLTISGLQAEDEADYYCSSYTSSSTLVFGGGTKLTVL
notes: tested as human IgG
B6: 12C1 (antibody, V domains shown)
VH: EVQLLESGGGLVKPGGSLRLSCAASGFTFNNYAMHWVRQAPGKGLEWLTVISFYGGKQYYADSVKGRFTISRDNSRNTLYLQMNSLRADDTAVYYCARDNGRHFDYWGQGTLVTVSS
VL: B5 VL with N55K, S91T, T94R, S96G, S97R, L99Y, G103S, L107V
notes: tested as human IgG
B7: 52D6 (antibody, V domains shown)
VH: EVQLLESGGGLVQPGRSLRLSCAASGFNFDAYAMHWVRQAPGKGLEWVSGISWNSGYIAYADSVEGRFAISRDNSKNTVFLQMNSLRAEDTAIYYCARDRWLSYWGQGTLVTVSS
VL: B5 VL with P2S, N55K, I77V, D87E, T94A, S95G, S97N, T98F, L99V
notes: tested as human IgG
B8: 52A9 (antibody, V domains shown)
VH: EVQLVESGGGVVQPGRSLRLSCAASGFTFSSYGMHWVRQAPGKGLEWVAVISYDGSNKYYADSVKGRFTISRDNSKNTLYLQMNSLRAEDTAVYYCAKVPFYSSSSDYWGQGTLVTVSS
VL: B5 VL with P2S, L4V, Y32S, N33K, Y38F, N62Y, S91T, S97R, L99W
notes: tested as human IgG
B9: 13F9 (antibody, V domains shown)
VH: EVQLLESGGGLIQPGGSLRLSCAASGFIFSRYGMHWVRQAPGKGLEWVAVTSYDGRSKYYTDSVQGRFTISRDNSKNTLDLQMNSLRAEDTAVYYCARLHTVGPWHFDLWGRGTLVTVSS
VL: B5 VL with Q1S, P2Y, V3E, A8R, I18V, A45V, D52E, T72A
notes: tested as human IgG
B10: 16F8 (antibody, V domains shown)
VH: EVQLLESGGGLVQPGGSLRLSCAASGFTFSSYGMHWVRQAPGKGLEWVAVISYDGSNKYYADSVKGRFTISRDNSKNTLYLQLNSLRAEDTAVYYCARGQNLDYWGQGTLVTVSS
VL: B5 VL with V35I, D52E, T94R, L99Q
notes: tested as human IgG
B11: 12G10 (antibody, V domains shown)
VH: EVQLVESGGGVVQPGRSLRLSCAASGFTFSSYAMHWVRQAPGKGLEWVAVISYDGSNKYYADSVKGRFTISRDNSKNTLYLQMNSLRAEDTAVYYCARIAVAGTHFDYWGQGTLVTVSS
VL: SYELMQPPSVSGTPGQRVTISCSGSTSNVGSNTVNWYRQFPGTAPKLLIYANNQRPSGVPDRFSGSKSGTSASLAISGLQSENEADYYCAAWDDSLNGYVFGTGTKLTVL
notes: tested as human IgG
B12: 52H9 (antibody, V domains shown)
VH: B11 VH with E1Q, A33G, R98K, I99L, A100S, V101G, A102P, G103T, T104A, H105K
VL: B5 VL with P2S, I18V, S27R, Y34F, S65T, Y89H, T94R, S95R, S96G, S97D
notes: tested as human IgG
B13: 15G11 (antibody, V domains shown)
VH: QVQLVQSGGGVVQPGGSLRLSCAASGFAFNRYGMHWVRQAPGQGLEWVAVISYDGSLKYYADSVKGRFTISRDNSNNTLYLQMNSLSADDTAVYYCAKGGAALDSWGQGTLVTVSS
VL: DVVMTQSPLSSPVTLGQPASISCRSSQSLVHSDGTTYLSWLQQRPGQPPRLLIYKISNRFSGVPDRFSGSGAGTDFTLKISRVEAEDVGVYYCMQTTQFPPMFGQGTKVEIK
notes: tested as human IgG
B14: 11G3 (antibody, V domains shown)
VH: EVQLVQSGGGVVQPGRSLRLSCAASGFTFSSYAMHWVRQAPGKGLEWVAVISYDGSNKYYADSVKGRFTISRDNSKNTLYLQMNSLRAEDTAVYYCARLTRGSDYYGSGRSMNDYWGQGTLVTVSS
VL: DIVMTQTPLSLPVTLGQPASISCRSSQSLVHSDGNTYLNWFQQRPGQSPRRLIYKVSNRDSGVPDRFSGSGSGTDFTLKISRVEAEDVGVYYCMQGTHWPPTFGQGTKVEIK
notes: tested as human IgG
B15: 12D11 (antibody, V domains shown)
VH: EVQLVQSGAEVKKPGASVKVSCKASGYTFTGYYLNWVRQAPGQGLEWMGWINPNNGGTNYAQRFQGRVTMTRDTSISTAYMDLSRLRSDDTAVYYCVRGTRKYYHDSNGRRRDYYYGMDVWGQGTTVTVSS
VL: AIRMTQSPSSLSASVGDRVTITCRASQSISSYLNWYQQKPGKAPKLLIYAASSLQSGVPSKFSGSGSGTEFTLTISSLQPEDFATYYCQQYKFYPPNFGGGTKVEI
notes: tested as human IgG

What follows are binders tested against T1, human CXCR5 (assay: flow cytometry on CHO-CXCR5 cells, IgG titration).
Description: This example describes a cellular binding assay to determine the EC₅₀ for anti-CXCR5 antibodies binding to human CXCR5. […] In this example, CHO-CXCR5 cells were lifted from culture flasks using non-enzymatic Cell Dissociation Buffer—PBS based (Life Technologies #13151-014). Cells were resuspended in FACS Buffer (2% Fetal Bovine Serum in PBS) at 1×10⁶ cells/ml and […] were aliquoted into the wells of a 96-well plate. Plated cells were spun down and the supernatant discarded. Cells were resuspended in 30 μl FACS Buffer serially diluted concentrations of CXCR5 IgG in triplicate. Plates were incubated for 1 hr at 4° C. and then washed 2× with FACS Buffer. Cells were resuspended in 50 μl goat anti-human IgG (γ-chain specific)-PE conjugated secondary antibody (Southern Biotech #2040-09) diluted 1:500 in FACS Buffer. Cells were further incubated for 30 min at 4° C. and then washed 1× with FACS Buffer. The cells were resuspended in a final volume of 30 μl FACS Buffer and analyzed using the Intellicyt Flow Cytometer. Median fluorescence in the FL-2H channel was determined using FlowJo software and EC₅₀ value was determined by plotting the data in GraphPad Prism and analyzing using a variable slope non-linear regression.
With B1 the EC50 was 0.7 nM.
Work on B2 yielded an EC50 of 1.8 nM.
B3 was tested, and the EC50 was 0.3 nM.
With B4 the EC50 was 0.7 nM.
Work on B5 yielded an EC50 of 0.9 nM.
Binder B6 has an EC50 of 12 nM.
In the case of B7, the EC50 is reported as 24 nM.
Work on B8 yielded an EC50 of 31 nM.
In the case of B9, the EC50 is reported as 1.6 nM.
B10 gave an EC50 of 3.6 nM.
Binder B11 has an EC50 of 0.5 nM.
Work on B12 yielded an EC50 of 4 nM.
With B13 the EC50 was 0.4 nM.
B14 showed an EC50 of 2.6 nM.
For B15, the EC50 was 2.1 nM.

What follows are binders tested against T2, murine CXCR5 (assay: flow cytometry on LPS-cultured mouse spleen cells, IgG titration).
Procedure: In this example, mouse spleen cells were harvested from either C57B1/6 or athymic nu/nu mice. Cells were cultured at 2×10⁶ per ml with LPS at 10 micrograms per ml in RPMI+10% FCS for up to 4 days at 37° C. in 5% CO2. Cells were harvested, washed and resuspended in FACS Buffer (2% Fetal Bovine Serum in PBS) at 1×10⁶ cells/ml and 50 μl (0.5×10⁵ cells) were aliquoted into the wells of a 96-well plate. Plated cells were spun down and the supernatant discarded. Cells were resuspended in 30 μl FACS Buffer containing serially diluted concentrations of CXCR5 IgG in triplicate. Plates were incubated for 1 hr at 4° C. and then washed 2x with FACS Buffer. Cells were resuspended in 50 μl goat anti-human IgG (γ-chain specific)-PE conjugated secondary antibody (Southern Biotech #2040-09) diluted 1:500 in FACS Buffer. Cells were further incubated for 30 min at 4° C. and then washed 1× with FACS Buffer. The cells were resuspended in a final volume of 30 μl FACS Buffer and analyzed using the Intellicyt Flow Cytometer. Median fluorescence in the FL-2H channel was determined using FlowJo software and EC₅₀ value was determined by plotting the data in GraphPad Prism and analyzing using a variable slope non-linear regression.
Binder B1 has an EC50 of 25 nM.
Work on B2 yielded an EC50 of 11 nM.
For B3, the EC50 was 2.8 nM.
For B4, the EC50 was 3.1 nM.
In the case of B5, the EC50 is reported as 5.5 nM.
B9 showed an EC50 of 23 nM.
For B10, the EC50 was 15 nM.
B11 gave an EC50 of 2.5 nM.
With B13 the EC50 was 4.8 nM.
Work on B14 yielded an EC50 of 37 nM.
